Legend:
human C1q (human) [1] = target: human C1q (human) (UniProt P02745); assay: cell-based or functional assay
human C1q (human) [2] = target: human C1q (human) (UniProt P02745); assay: solid phase C1q binding ELISA, antibody coated in a titration, C1q added
FcγR3a (V) (human) = FcγR3a (V) (human) (UniProt P08637); assay: solid phase binding assay (Meso Scale), receptor coated, antibody titrated
FcγR2a(H) (human) = FcγR2a(H) (human) (UniProt P12318); assay: as above
FcγR1 (human) = FcγR1 (human) (UniProt P12314); assay: as above
FcγR1 (human), sequence (P12314 16-288): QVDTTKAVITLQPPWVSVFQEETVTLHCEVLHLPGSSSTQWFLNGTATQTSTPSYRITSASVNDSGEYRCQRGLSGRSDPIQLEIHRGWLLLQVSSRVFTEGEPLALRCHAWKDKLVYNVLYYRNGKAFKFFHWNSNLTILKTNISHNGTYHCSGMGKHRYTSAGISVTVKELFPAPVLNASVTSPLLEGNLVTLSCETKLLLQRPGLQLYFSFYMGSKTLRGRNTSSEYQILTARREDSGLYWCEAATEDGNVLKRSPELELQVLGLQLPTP

human C1q (human), sequence (P02745 23-245 limits assumed, chain 1 of 3): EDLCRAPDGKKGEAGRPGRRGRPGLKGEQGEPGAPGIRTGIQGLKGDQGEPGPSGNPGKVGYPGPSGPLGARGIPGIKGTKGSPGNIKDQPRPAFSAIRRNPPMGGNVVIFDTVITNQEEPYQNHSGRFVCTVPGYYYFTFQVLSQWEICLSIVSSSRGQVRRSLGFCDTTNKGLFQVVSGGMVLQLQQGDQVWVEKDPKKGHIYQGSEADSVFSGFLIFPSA
human C1q (human), sequence (P02746 28-253 limits assumed, chain 2 of 3, further chain): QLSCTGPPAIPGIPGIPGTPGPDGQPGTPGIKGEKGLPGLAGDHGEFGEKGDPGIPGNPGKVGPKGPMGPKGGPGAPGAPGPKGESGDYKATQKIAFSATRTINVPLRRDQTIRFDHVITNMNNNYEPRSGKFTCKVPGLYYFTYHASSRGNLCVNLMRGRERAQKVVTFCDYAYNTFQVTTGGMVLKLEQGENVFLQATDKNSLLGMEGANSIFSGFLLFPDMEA
human C1q (human), sequence (P02747 29-245 limits assumed, chain 3 of 3, further chain): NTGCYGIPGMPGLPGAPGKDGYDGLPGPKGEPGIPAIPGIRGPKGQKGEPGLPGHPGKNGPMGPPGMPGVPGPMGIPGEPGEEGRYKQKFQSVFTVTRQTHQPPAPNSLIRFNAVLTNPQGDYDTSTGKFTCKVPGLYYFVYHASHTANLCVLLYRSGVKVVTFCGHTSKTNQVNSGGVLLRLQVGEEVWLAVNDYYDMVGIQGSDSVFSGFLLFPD
FcγR2a(H) (human), sequence (P12318 36-218): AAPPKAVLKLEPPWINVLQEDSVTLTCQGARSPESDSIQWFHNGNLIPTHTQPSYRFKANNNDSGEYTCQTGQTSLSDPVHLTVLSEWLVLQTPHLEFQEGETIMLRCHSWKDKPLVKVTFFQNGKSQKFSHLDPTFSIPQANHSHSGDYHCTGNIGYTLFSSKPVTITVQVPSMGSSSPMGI
FcγR3a (V) (human), sequence (P08637 17-208 F176V): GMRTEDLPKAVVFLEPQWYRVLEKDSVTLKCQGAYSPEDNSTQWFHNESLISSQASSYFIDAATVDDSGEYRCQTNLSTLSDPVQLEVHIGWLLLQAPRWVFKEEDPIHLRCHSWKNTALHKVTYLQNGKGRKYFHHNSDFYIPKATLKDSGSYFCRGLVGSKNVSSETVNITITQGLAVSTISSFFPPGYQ

CDC activity EC50 (nM), BxPC3 target cells, human complement (human C1q (human) [1]): > 200 nM | CDC activity EC50 (nM), HEK293 target cells, human complement (human C1q (human) [1]): > 200 nM | CDC activity EC50 (nM), MDA-MB-231 target cells, human complement (human C1q (human) [1]): > 200 nM | CDC activity EC50 (nM), TGFRβII-HEK target cells, human complement (human C1q (human) [1]): > 200 nM | EC50 (human C1q (human) [2]): 19 nM | EC50 (FcγR3a (V) (human)): 5.7 nM | EC50 (FcγR2a(H) (human)): 48 nM | EC50 (FcγR1 (human)): 0.58 nM
Substance: LY3022859 (antibody)

Source: patent publication US20180105597A1
